Experimental findings from patent US11732249 (WASHINGTON UNIVERSITY, dated 2023) are described below.

This experiment has as its target T1, soluble bovine cation-independent mannose 6-phosphate receptor (CI-MPR), covalently conjugated to Cyanogen … (bovine, UniProt P08169 45-2313, limits assumed, covalently conjugated to Cyanogen bromide-activated-Sepharose 4B).
T1 construct: also called immobilized CI-MPR
Nature of the experiment: CI-MPR-affinity bead pull-down from lysates of GNPTAB-/- HeLa cells transfected with empty vector, WT α/β precursor or DS1 mutant; western blot (FIG. 2C). Background: In western blotting, separated proteins are transferred to a membrane and probed.

T1 sequence (P08169 45-2313 limits assumed): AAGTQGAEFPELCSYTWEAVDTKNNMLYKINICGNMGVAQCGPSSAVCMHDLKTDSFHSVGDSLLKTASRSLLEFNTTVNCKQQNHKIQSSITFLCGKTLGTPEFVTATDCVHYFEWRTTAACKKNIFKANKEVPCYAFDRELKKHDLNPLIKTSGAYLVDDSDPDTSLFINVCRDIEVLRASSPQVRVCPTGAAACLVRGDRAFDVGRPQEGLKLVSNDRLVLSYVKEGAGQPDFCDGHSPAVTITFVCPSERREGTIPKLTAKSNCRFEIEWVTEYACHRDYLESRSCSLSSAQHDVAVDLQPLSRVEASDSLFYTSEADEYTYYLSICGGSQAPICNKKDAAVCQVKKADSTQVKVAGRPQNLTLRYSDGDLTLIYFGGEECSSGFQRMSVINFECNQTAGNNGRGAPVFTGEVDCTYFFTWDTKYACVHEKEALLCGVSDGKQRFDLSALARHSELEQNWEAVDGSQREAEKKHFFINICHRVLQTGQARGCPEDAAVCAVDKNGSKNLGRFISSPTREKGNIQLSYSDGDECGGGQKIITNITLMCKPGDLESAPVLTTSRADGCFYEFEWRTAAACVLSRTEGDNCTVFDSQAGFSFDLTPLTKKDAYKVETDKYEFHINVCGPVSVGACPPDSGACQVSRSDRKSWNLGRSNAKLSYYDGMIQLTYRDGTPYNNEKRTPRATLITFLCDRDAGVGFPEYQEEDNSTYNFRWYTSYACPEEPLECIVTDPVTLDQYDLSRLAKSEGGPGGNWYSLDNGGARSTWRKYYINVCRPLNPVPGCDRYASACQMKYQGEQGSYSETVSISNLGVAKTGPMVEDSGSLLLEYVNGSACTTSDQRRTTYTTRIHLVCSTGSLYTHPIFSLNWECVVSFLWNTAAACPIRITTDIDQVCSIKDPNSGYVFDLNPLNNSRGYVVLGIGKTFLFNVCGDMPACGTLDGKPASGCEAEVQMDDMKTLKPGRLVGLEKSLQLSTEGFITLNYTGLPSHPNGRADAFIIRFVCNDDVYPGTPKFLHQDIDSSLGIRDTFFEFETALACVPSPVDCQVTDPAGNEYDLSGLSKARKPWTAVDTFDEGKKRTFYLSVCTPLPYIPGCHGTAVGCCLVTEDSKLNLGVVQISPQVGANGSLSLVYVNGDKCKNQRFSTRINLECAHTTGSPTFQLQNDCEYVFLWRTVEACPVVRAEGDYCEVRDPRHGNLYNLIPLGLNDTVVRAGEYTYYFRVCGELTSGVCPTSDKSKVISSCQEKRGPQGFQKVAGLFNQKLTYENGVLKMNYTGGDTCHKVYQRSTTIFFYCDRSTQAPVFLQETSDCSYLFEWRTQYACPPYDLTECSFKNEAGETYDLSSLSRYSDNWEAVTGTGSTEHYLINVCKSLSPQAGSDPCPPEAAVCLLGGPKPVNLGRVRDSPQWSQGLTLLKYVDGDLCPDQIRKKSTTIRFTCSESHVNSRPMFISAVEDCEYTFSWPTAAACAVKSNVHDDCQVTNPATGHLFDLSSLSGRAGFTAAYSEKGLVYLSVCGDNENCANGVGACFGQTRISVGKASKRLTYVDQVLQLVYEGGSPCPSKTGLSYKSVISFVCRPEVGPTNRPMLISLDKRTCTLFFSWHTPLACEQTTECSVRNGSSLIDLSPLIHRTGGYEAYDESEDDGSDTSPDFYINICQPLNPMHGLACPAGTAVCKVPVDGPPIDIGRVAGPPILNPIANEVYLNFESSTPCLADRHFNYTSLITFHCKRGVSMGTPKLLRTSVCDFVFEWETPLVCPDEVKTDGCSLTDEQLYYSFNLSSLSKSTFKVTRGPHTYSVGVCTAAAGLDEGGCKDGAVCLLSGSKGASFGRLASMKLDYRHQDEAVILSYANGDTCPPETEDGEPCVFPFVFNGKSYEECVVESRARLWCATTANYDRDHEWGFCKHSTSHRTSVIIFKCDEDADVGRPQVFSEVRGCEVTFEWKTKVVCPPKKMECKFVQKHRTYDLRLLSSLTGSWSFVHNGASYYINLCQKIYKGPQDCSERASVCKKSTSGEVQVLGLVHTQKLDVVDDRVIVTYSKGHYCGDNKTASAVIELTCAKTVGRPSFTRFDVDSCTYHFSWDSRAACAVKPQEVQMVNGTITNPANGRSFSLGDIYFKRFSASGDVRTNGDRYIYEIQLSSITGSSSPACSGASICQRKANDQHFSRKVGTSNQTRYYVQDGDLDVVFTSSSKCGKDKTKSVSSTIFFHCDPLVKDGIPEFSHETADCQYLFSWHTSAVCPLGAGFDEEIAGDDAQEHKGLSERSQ
Method: (FIG. 2C) Western blot of GNPTAB^{-/-} HeLa cells co-transfected with the expression plasmids for the indicated proteins along with empty vector, WT α/β precursor or the DS1 mutant cDNA. Cell lysates were incubated with CI-MPR-affinity beads and the binding of the various proteins was determined by probing the blot with the following antibodies: Renin—anti-HA; NPC2, GP, Lamp1 and Lamp2 with antibodies generated against the native protein.

B1: Lamp1 (other, UniProt P11279 29-417, looked up)
chain: AMFMVKNGNGTACIMANFSAAFSVNYDTKSGPKNMTFDLPSDATVVLNRSSCGKENTSDPSLVIAFGRGHTLTLNFTRNATRYSVQLMSFVYNLSDTHLFPNASSKEIKTVESITDIRADIDKKYRCVSGTQVHMNNVTVTLHDATIQAYLSNSSFSRGETRCEQDRPSPTTAPPAPPSPSPSPVPKSPSVDKYNVSGTNGTCLLASMGLQLNLTYERKDNTTVTRLLNINPNKTSASGSCGAHLVTLELHSEGTTVLLFQFGMNASSSRFFLQGIQLNTILPDARDPAFKAANGSLRALQATVGNSYKCNAEEHVRVTKAFSVNIFKVWVQAFKVEGGQFGSVEECLLDENSMLIPIAVGGALAGLVLIVLIAYLVGRKRSHAGYQTI
Regarding B1, the binding result is “no binding”.
